Key:
[1] = molecular target: human CD20 on cells (human B cells; Raji, SU-DHL-8, SU-DHL-4, A3KAW, NAMALWA) (human) (UniProt P11836); test: binding to Raji cells
[2] = molecular target: human CD20 on cells (human B cells; Raji, SU-DHL-8, SU-DHL-4, A3KAW, NAMALWA) (human) (UniProt P11836); test: flow cytometry, human B cells
[3] = molecular target: human CD3 on cells (Jurkat cells, human T cells) (human) (UniProt P07766); test: binding to human CD4+ T cells
[4] = molecular target: human CD3 on cells (Jurkat cells, human T cells) (human) (UniProt P07766); test: binding to human CD8+ T cells
[5] = molecular target: cynomolgus monkey CD20 on B cells (cynomolgus monkey) (UniProt M4ZHZ6); test: flow cytometry, monkey B cells
[6] = molecular target: human CD20 on cells (human B cells; Raji, SU-DHL-8, SU-DHL-4, A3KAW, NAMALWA) (human) (UniProt P11836); test: binding to human B cells
[7] = molecular target: human CD3 on cells (Jurkat cells, human T cells) (human) (UniProt P07766); test: binding to human CD3+ T cells
human CD3δε (human) = human CD3δε (human) (UniProt P07766); test: binding to CD3δ/ε protein dimer

human CD3 on cells (Jurkat cells, human T cells) (human), sequence (P07766 23-207): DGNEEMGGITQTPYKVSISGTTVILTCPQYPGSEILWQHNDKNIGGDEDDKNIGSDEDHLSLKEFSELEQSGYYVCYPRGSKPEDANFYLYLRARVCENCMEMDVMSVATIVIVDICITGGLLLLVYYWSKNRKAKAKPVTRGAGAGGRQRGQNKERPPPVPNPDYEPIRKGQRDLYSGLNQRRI
human CD20 on cells (human B cells; Raji, SU-DHL-8, SU-DHL-4, A3KAW, NAMALWA) (human), sequence (P11836 whole entry): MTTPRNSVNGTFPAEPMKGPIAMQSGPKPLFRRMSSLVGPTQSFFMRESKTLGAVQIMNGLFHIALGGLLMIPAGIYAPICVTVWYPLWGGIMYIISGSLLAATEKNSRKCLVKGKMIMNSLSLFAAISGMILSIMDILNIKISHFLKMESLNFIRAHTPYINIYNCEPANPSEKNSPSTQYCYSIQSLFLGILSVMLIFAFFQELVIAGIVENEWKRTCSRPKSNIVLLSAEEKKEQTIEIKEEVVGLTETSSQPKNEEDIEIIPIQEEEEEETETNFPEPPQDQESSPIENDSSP

| Substance | EC50 [1] | max MFI [2] | EC50 [3] | EC50 [4] | max MFI [5] | EC50 [6] | EC50 [7] | EC50 (human CD3δε (human)) |
| --- | --- | --- | --- | --- | --- | --- | --- | --- |
| IgG1 isotype control antibody | > 8000 nM | 1650 MFI | > 2000 nM | > 2000 nM | 60.4 MFI |  |  |  |
| Plamotamab analog (bispecific antibody) | 135 nM |  | 13.1 nM | 10.1 nM |  | 200 nM | 11.8 nM | 2.1 nM |

Reference: patent US20250326860A1
